Assay results from patent US20060292151A1 (published 2006).

B1: L-SIGN-5 (receptor)
chain: MSDSKEPRVQQLGLLEEDPTTSGIRLFPRDFQFQQIHGHKSSTGCLGHGALVLQLLSFMLLAGVLVAILVQVSKVPSSLSQEQSEQDAIYQNLTQLKAAVGELSEKSKLQEIYQELTQLKAAVGELPEKSKLQEIYQELTRLKAAVGELPEKSKLQEIYQELTRLKAAVGELPEKSKLQEIYQELTQLKAAVGELPDQSKQQQIYQELTDLKTAFERLCRHCPKDWTFFQGNCYFMSNSQRNWHDSVTACQEVRAQLVVIKTAEEQNFLQLQTSRSNRFSWMGLSDLNQEGTWQWVDGSPLSPSFQRYWNSGEPNNSGNEDCAEFSGSGWNDNRCDVDNYWICKKPAACFRDE
notes: Expressed whole on the surface of stably transfected HeLa cells; Encodes repeats 1-4 and 7; also called L-SIGN isoform containing 5 tandem repeats; 5-repeat form of L-SIGN
B2: L-SIGN-4 (receptor)
chain: MSDSKEPRVQQLGLLEEDPTTSGIRLFPRDFQFQQIHGHKSSTGCLGHGALVLQLLSFMLLAGVLVAILVQVSKVPSSLSQEQSEQDAIYQNLTQLKAAVGELSEKSKLQEIYQELTRLKAAVGELPEKSKLQEIYQELTRLKAAVGELPEKSKLQEIYQELTQLKAAVGELPDQSKQQQIYQELTDLKTAFERLCRHCPKDWTFFQGNCYFMSNSQRNWHDSVTACQEVRAQLVVIKTAEEQNFLQLQTSRSNRFSWMGLSDLNQEGTWQWVDGSPLSPSFQRYWNSGEPNNSGNEDCAEFSGSGWNDNRCDVDNYWICKKPAACFRDE
notes: Expressed whole on the surface of stably transfected HeLa cells; Encodes repeats 1, 3, 4 and 7; also called L-SIGN isoform containing 4 tandem repeats; 4-repeat form of L-SIGN
B3: L-SIGN-9 (receptor)
chain: MSDSKEPRVQQLGLLEEDPTTSGIRLFPRDFQFQQIHGHKSSTGCLGHGALVLQLLSFMLLAGVLVAILVQVSKVPSSLSQEQSEQDAIYQNLTQLKAAVGELSEKSKLQEIYQELTQLKAAVGELPEKSKLQEIYQELTRLKAAVGELPEKSKLQEIYQELTRLKAAVGELPEKSKLQEIYQELTRLKAAVGELPEKSKLQEIYQELTRLKAAVGELPEKSKLQEIYQELTRLKAAVGELPEKSKLQEIYQELTELKAAVGELPEKSKLQEIYQELTQLKAAVGELPDQSKQQQIYQELTDLKTAFERLCRHCPKDWTFFQGNCYFMSNSQRNWHDSVTACQEVRAQLVVIKTAEEQNFLQLQTSRSNRFSWMGLSDLNQEGTWQWVDGSPLSPSFQRYWNSGEPNNSGNEDCAEFSGSGWNDNRCDVDNYWICKKPAACFRDE
notes: Expressed whole on the surface of stably transfected HeLa cells; also called L-SIGN isoform containing 9 tandem repeats; 9-repeat form of L-SIGN
B4: L-SIGN-3 (receptor)
chain: MSDSKEPRVQQLGLLEEDPTTSGIRLFPRDFQFQQIHGHKSSTGCLGHGALVLQLLSFMLLAGVLVAILVQVSKVPSSLSQEQSEQDAIYQNLTQLKAAVGELSEKSKLQEIYQELTRLKAAVGELPEKSKLQEIYQELTQLKAAVGELPDQSKQQQIYQELTDLKTAFERLCRHCPKDWTFFQGNCYFMSNSQRNWHDSVTACQEVRAQLVVIKTAEEQNFLQLQTSRSNRFSWMGLSDLNQEGTWQWVDGSPLSPSFQRYWNSGEPNNSGNEDCAEFSGSGWNDNRCDVDNYWICKKPAACFRDE
notes: Expressed whole on the surface of stably transfected HeLa cells; Encodes tandem repeats 1, 3 and 7; also called L-SIGN isoform containing 3 tandem repeats; 3-repeat form of L-SIGN

Biological target: T1, HCV pseudovirus particles (HCVpp) (hepatitis C virus isolate H77, UniProt P27958 192-383; P27958 384-746)
T1 construct: A pseudovirus particle (HIV-1 NL4.3 luciferase core) that carries E1/E2 on its envelope; Putative splice acceptor sites changed by conservative mutagenesis; also called HIV-1 particles pseudotyped with HCV E1/E2 envelope glycoproteins
Experiment: HCVpp supernatant on HeLa-SIGN transfectants, cell-bound p24 by ELISA

Binder | binding result
B1 | binds
B2 | binds
B3 | binds
B4 | binds
